Experimental data reported in article PMC10786891, “Massively parallel profiling of RNA-targeting CRISPR-Cas13d”.

T1: EsCas13d, nuclease-dead (Eubacterium siraeum, UniProt B0MS50, R295A;H300A;R849A;H854A)
T1 sequence: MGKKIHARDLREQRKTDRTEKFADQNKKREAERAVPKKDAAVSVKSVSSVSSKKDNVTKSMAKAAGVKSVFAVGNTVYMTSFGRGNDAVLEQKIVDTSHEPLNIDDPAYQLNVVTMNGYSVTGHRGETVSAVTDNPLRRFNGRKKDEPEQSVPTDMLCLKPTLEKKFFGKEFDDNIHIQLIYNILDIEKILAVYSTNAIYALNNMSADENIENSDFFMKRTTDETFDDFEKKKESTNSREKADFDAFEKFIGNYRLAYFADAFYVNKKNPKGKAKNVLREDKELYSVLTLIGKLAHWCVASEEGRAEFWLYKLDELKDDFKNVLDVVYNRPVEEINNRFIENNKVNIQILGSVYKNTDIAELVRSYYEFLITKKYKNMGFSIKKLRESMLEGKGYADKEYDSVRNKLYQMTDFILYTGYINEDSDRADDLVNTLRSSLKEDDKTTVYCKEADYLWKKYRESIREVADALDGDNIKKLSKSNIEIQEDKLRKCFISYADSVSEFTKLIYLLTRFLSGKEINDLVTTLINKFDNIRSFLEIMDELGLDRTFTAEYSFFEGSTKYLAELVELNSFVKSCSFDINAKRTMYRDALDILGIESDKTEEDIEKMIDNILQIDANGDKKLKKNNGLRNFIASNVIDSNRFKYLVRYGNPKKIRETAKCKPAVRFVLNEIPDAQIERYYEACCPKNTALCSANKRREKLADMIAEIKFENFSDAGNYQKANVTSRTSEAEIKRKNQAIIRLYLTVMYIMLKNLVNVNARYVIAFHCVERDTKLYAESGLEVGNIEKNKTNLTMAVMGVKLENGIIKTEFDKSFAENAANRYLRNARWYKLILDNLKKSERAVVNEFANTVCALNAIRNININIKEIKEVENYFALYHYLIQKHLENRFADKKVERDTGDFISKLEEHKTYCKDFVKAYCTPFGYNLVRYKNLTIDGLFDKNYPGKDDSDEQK


Target: T1, EsCas13d, nuclease-dead
Assay: crRNA (strand 1, pre-loaded); Mg2+; 40 mM Tris-HCl pH 7.5, 150 mM NaCl, 6 mM MgCl2, 1 mM DTT, 0.1% Tween-20, 0.2 mg/ml BSA; 25 C; 10 min per concentration, then washed
Conditions: tags: His6-TwinStrep-SUMO cleaved; N-terminal SNAP kept (SNAP-Surface 488); label: 3' end held by stalled T7 RNA polymerase

Row | Binder | Kd [nM]
1 | target 1 A9U,C22A (mixed) RNA 1: CACCCGUGCAAAAAUGCAGGGGUCUAAAACUGAGCGGAUAACCUCUCUAUGG RNA 2: GGGAAUGGAUCCACAUCUACGAAUUCGUAACAUAGAGAGGUUUUCCGCUCACCGAGAUCGGAAGAGCACACGU | 16.9 ± 0.9
2 | target 1 insC 3' of 19,insA 3' of 10 (mixed) RNA 1: CACCCGUGCAAAAAUGCAGGGGUCUAAAACUGAGCGGAUAACCUCUCUAUGG RNA 2: GGGAAUGGAUCCACAUCUACGAAUUCGUACCAUCAGAGAGGUUAAUCCGCUCACCGAGAUCGGAAGAGCACACGU | 57 ± 5
3 | target 1 U3C,U10A (mixed) RNA 1: CACCCGUGCAAAAAUGCAGGGGUCUAAAACUGAGCGGAUAACCUCUCUAUGG RNA 2: GGGAAUGGAUCCACAUCUACGAAUUCGUACCAUAGAGAGGUAAUCCGCCCACCGAGAUCGGAAGAGCACACGU | 90 ± 40
4 | target 1 U10C,G13A (mixed) RNA 1: CACCCGUGCAAAAAUGCAGGGGUCUAAAACUGAGCGGAUAACCUCUCUAUGG RNA 2: GGGAAUGGAUCCACAUCUACGAAUUCGUACCAUAGAGAAGUCAUCCGCUCACCGAGAUCGGAAGAGCACACGU | 13.6 ± 1
5 | target 1 insA 3' of 13,insA 3' of 2 (mixed) RNA 1: CACCCGUGCAAAAAUGCAGGGGUCUAAAACUGAGCGGAUAACCUCUCUAUGG RNA 2: GGGAAUGGAUCCACAUCUACGAAUUCGUACCAUAGAGAGAGUUAUCCGCUCAACCGAGAUCGGAAGAGCACACGU | 3.1 ± 0.28
6 | target 1 U19A,C22A (mixed) RNA 1: CACCCGUGCAAAAAUGCAGGGGUCUAAAACUGAGCGGAUAACCUCUCUAUGG RNA 2: GGGAAUGGAUCCACAUCUACGAAUUCGUAACAAAGAGAGGUUAUCCGCUCACCGAGAUCGGAAGAGCACACGU | 56 ± 7
7 | target 1 insU 3' of 22,insA 3' of 3 (mixed) RNA 1: CACCCGUGCAAAAAUGCAGGGGUCUAAAACUGAGCGGAUAACCUCUCUAUGG RNA 2: GGGAAUGGAUCCACAUCUACGAAUUCGUACUCAUAGAGAGGUUAUCCGCUACACCGAGAUCGGAAGAGCACACGU | 31.5 ± 2.8
8 | target 1 insC 3' of 15,insU 3' of 5 (mixed) RNA 1: CACCCGUGCAAAAAUGCAGGGGUCUAAAACUGAGCGGAUAACCUCUCUAUGG RNA 2: GGGAAUGGAUCCACAUCUACGAAUUCGUACCAUAGAGCAGGUUAUCCGUCUCACCGAGAUCGGAAGAGCACACGU | 16.6 ± 1.8
9 | target 1 insG 3' of 9,insA 3' of 2 (mixed) RNA 1: CACCCGUGCAAAAAUGCAGGGGUCUAAAACUGAGCGGAUAACCUCUCUAUGG RNA 2: GGGAAUGGAUCCACAUCUACGAAUUCGUACCAUAGAGAGGUUAGUCCGCUCAACCGAGAUCGGAAGAGCACACGU | 21.2 ± 2.5
10 | target 1 insC 3' of 10,insG 3' of 3 (mixed) RNA 1: CACCCGUGCAAAAAUGCAGGGGUCUAAAACUGAGCGGAUAACCUCUCUAUGG RNA 2: GGGAAUGGAUCCACAUCUACGAAUUCGUACCAUAGAGAGGUUCAUCCGCUGCACCGAGAUCGGAAGAGCACACGU | 9.5 ± 0.5
11 | target 1 G15A,A16U (mixed) RNA 1: CACCCGUGCAAAAAUGCAGGGGUCUAAAACUGAGCGGAUAACCUCUCUAUGG RNA 2: GGGAAUGGAUCCACAUCUACGAAUUCGUACCAUAGUAAGGUUAUCCGCUCACCGAGAUCGGAAGAGCACACGU | 24.3 ± 2.3
12 | target 1 U10A,U11C (mixed) RNA 1: CACCCGUGCAAAAAUGCAGGGGUCUAAAACUGAGCGGAUAACCUCUCUAUGG RNA 2: GGGAAUGGAUCCACAUCUACGAAUUCGUACCAUAGAGAGGCAAUCCGCUCACCGAGAUCGGAAGAGCACACGU | 9.96 ± 0.33
13 | target 1 U8G (mixed) RNA 1: CACCCGUGCAAAAAUGCAGGGGUCUAAAACUGAGCGGAUAACCUCUCUAUGG RNA 2: GGGAAUGGAUCCACAUCUACGAAUUCGUACCAUAGAGAGGUUAGCCGCUCACCGAGAUCGGAAGAGCACACGU | 19.2 ± 0.9
14 | target 1 insA 3' of 19,insG 3' of 2 (mixed) RNA 1: CACCCGUGCAAAAAUGCAGGGGUCUAAAACUGAGCGGAUAACCUCUCUAUGG RNA 2: GGGAAUGGAUCCACAUCUACGAAUUCGUACCAUAAGAGAGGUUAUCCGCUCGACCGAGAUCGGAAGAGCACACGU | 19.5 ± 1.3
15 | target 1 A16G,G17C (mixed) RNA 1: CACCCGUGCAAAAAUGCAGGGGUCUAAAACUGAGCGGAUAACCUCUCUAUGG RNA 2: GGGAAUGGAUCCACAUCUACGAAUUCGUACCAUACGGAGGUUAUCCGCUCACCGAGAUCGGAAGAGCACACGU | 76 ± 10
16 | target 1 U3A,A14G (mixed) RNA 1: CACCCGUGCAAAAAUGCAGGGGUCUAAAACUGAGCGGAUAACCUCUCUAUGG RNA 2: GGGAAUGGAUCCACAUCUACGAAUUCGUACCAUAGAGGGGUUAUCCGCACACCGAGAUCGGAAGAGCACACGU | 14.3 ± 1.2
17 | target 1 del2,del15 (mixed) RNA 1: CACCCGUGCAAAAAUGCAGGGGUCUAAAACUGAGCGGAUAACCUCUCUAUGG RNA 2: GGGAAUGGAUCCACAUCUACGAAUUCGUACCAUAGAAGGUUAUCCGCUACCGAGAUCGGAAGAGCACACGU | 42 ± 7
18 | target 1 C2U,G5C (mixed) RNA 1: CACCCGUGCAAAAAUGCAGGGGUCUAAAACUGAGCGGAUAACCUCUCUAUGG RNA 2: GGGAAUGGAUCCACAUCUACGAAUUCGUACCAUAGAGAGGUUAUCCCCUUACCGAGAUCGGAAGAGCACACGU | 12.4 ± 0.8
19 | target 1 G17U,C22U (mixed) RNA 1: CACCCGUGCAAAAAUGCAGGGGUCUAAAACUGAGCGGAUAACCUCUCUAUGG RNA 2: GGGAAUGGAUCCACAUCUACGAAUUCGUAUCAUAUAGAGGUUAUCCGCUCACCGAGAUCGGAAGAGCACACGU | 32.4 ± 2.8
20 | target 1 insU 3' of 22,insU 3' of 22 (mixed) RNA 1: CACCCGUGCAAAAAUGCAGGGGUCUAAAACUGAGCGGAUAACCUCUCUAUGG RNA 2: GGGAAUGGAUCCACAUCUACGAAUUCGUACUUCAUAGAGAGGUUAUCCGCUCACCGAGAUCGGAAGAGCACACGU | 31 ± 8
21 | target 1 A1U,U8G (mixed) RNA 1: CACCCGUGCAAAAAUGCAGGGGUCUAAAACUGAGCGGAUAACCUCUCUAUGG RNA 2: GGGAAUGGAUCCACAUCUACGAAUUCGUACCAUAGAGAGGUUAGCCGCUCUCCGAGAUCGGAAGAGCACACGU | 24.6 ± 1
22 | target 1 G12U,G17A (mixed) RNA 1: CACCCGUGCAAAAAUGCAGGGGUCUAAAACUGAGCGGAUAACCUCUCUAUGG RNA 2: GGGAAUGGAUCCACAUCUACGAAUUCGUACCAUAAAGAGUUUAUCCGCUCACCGAGAUCGGAAGAGCACACGU | 59 ± 8
23 | target 1 insC 3' of 11,insU 3' of 4 (mixed) RNA 1: CACCCGUGCAAAAAUGCAGGGGUCUAAAACUGAGCGGAUAACCUCUCUAUGG RNA 2: GGGAAUGGAUCCACAUCUACGAAUUCGUACCAUAGAGAGGUCUAUCCGCUUCACCGAGAUCGGAAGAGCACACGU | 23.2 ± 1.8
24 | target 1 del14,del20 (mixed) RNA 1: CACCCGUGCAAAAAUGCAGGGGUCUAAAACUGAGCGGAUAACCUCUCUAUGG RNA 2: GGGAAUGGAUCCACAUCUACGAAUUCGUACCUAGAGGGUUAUCCGCUCACCGAGAUCGGAAGAGCACACGU | 72 ± 25
